{"source": "IntAct's records for PubMed 32296183", "parents": {"B1": {"name": "Dolichol kinase (Homo sapiens), Q9UPQ8 (parent)", "chain": "MTRECPSPAPGPGAPLSGSVLAEAAVVFAVVLSIHATVWDRYSWCAVALAVQAFYVQYKWDRLLQQGSAVFQFRMSANSGLLPASMVMPLLGLVMKERCQTAGNPFFERFGIVVAATGMAVALFSSVLALGITRPVPTNTCVILGLAGGVIIYIMKHSLSVGEVIEVLEVLLIFVYLNMILLYLLPRCFTPGEALLVLGGISFVLNQLIKRSLTLVESQGDPVDFFLLVVVVGMVLMGIFFSTLFVFMDSGTWASSIFFHLMTCVLSLGVVLPWLHRLIRRNPLLWLLQFLFQTDTRIYLLAYWSLLATLACLVVLYQNAKRSSSESKKHQAPTIARKYFHLIVVATYIPGIIFDRPLLYVAATVCLAVFIFLEYVRYFRIKPLGHTLRSFLSLFLDERDSGPLILTHIYLLLGMSLPIWLIPRPCTQKGSLGGARALVPYAGVLAVGVGDTVASIFGSTMGEIRWPGTKKTFEGTMTSIFAQIISVALILIFDSGVDLNYSYAWILGSISTVSLLEAYTTQIDNLLLPLYLLILLMA"}}}
{"variants_of": "B1", "conditions": "with kca10_human KCNA10, Q16322"}
{"variant": "MTRECPSPAPGPGAPLSGSVLAEAAVVFAVVLSIHATVWDRYSWCAVALAVQAFYVQYKWDRLLQQGSAVFQFRMSANSGLLPASMVMPLLGLVMKERCQTAGNPFFERFGIVVAATGMAVALFSSVLALGITRPVPTNTCVILGLAGGVIIYIMKHSLSVGEVIEVLEVLLIFVYLNMILLYLLPRCFTPGEALLVLGGISFVLNQLIKRSLTLVESQGDPVDFFLLVVVVGMVLMGIFFSTLFVFMDSGTWASSIFFHLMTCVLSLGVVLPWLHRLIRRNPLLWLLQFLFQTDTRIYLLAYWSLLATLACLVVLYQNAKRSSSESKKHQAPTIARKYFHLIVVATYIPGIIFDRPLLYVAATVCLAVFIFLEYVRYFRIKPLGHTLRSFLSLFLDERDSGPLILTHIYLLLGMSLPIWLIPRPCTQKGSLGGARALVPSAGVLAVGVGDTVASIFGSTMGEIRWPGTKKTFEGTMTSIFAQIISVALILIFDSGVDLNYSYAWILGSISTVSLLEAYTTQIDNLLLPLYLLILLMA", "note": "[Y441S]", "effect of a mutation on the interaction": "disrupting interaction strength"}
{"variants_of": "B1", "conditions": "with kcna6_human KCNA6, P17658"}
{"variant": "MTRECPSPAPGPGAPLSGSVLAEAAVVFAVVLSIHATVWDRYSWCAVALAVQAFYVQYKWDRLLQQGSAVFQFRMSANSGLLPASMVMPLLGLVMKERCQTAGNPFFERFGIVVAATGMAVALFSSVLALGITRPVPTNTCVILGLAGGVIIYIMKHSLSVGEVIEVLEVLLIFVYLNMILLYLLPRCFTPGEALLVLGGISFVLNQLIKRSLTLVESQGDPVDFFLLVVVVGMVLMGIFFSTLFVFMDSGTWASSIFFHLMTCVLSLGVVLPWLHRLIRRNPLLWLLQFLFQTDTRIYLLAYWSLLATLACLVVLYQNAKRSSSESKKHQAPTIARKYFHLIVVATYIPGIIFDRPLLYVAATVCLAVFIFLEYVRYFRIKPLGHTLRSFLSLFLDERDSGPLILTHIYLLLGMSLPIWLIPRPCTQKGSLGGARALVPSAGVLAVGVGDTVASIFGSTMGEIRWPGTKKTFEGTMTSIFAQIISVALILIFDSGVDLNYSYAWILGSISTVSLLEAYTTQIDNLLLPLYLLILLMA", "note": "[Y441S]", "effect of a mutation on the interaction": "disrupting interaction strength"}
{"variants_of": "B1", "conditions": "with eda_human EDA"}
{"variant": "MTRECPSPAPGPGAPLSGSVLAEAAVVFAVVLSIHATVWDRYSWCAVALAVQAFYVQYKWDRLLQQGSAVFQFRMSANSGLLPASMVMPLLGLVMKERCQTAGNPFFERFGIVVAATGMAVALFSSVLALGITRPVPTNTCVILGLAGGVIIYIMKHSLSVGEVIEVLEVLLIFVYLNMILLYLLPRCFTPGEALLVLGGISFVLNQLIKRSLTLVESQGDPVDFFLLVVVVGMVLMGIFFSTLFVFMDSGTWASSIFFHLMTCVLSLGVVLPWLHRLIRRNPLLWLLQFLFQTDTRIYLLAYWSLLATLACLVVLYQNAKRSSSESKKHQAPTIARKYFHLIVVATYIPGIIFDRPLLYVAATVCLAVFIFLEYVRYFRIKPLGHTLRSFLSLFLDERDSGPLILTHIYLLLGMSLPIWLIPRPCTQKGSLGGARALVPSAGVLAVGVGDTVASIFGSTMGEIRWPGTKKTFEGTMTSIFAQIISVALILIFDSGVDLNYSYAWILGSISTVSLLEAYTTQIDNLLLPLYLLILLMA", "note": "[Y441S]", "effect of a mutation on the interaction": "disrupting interaction strength"}
{"variants_of": "B1", "conditions": "with apbp2_human APPBP2, Q92624"}
{"variant": "MTRECPSPAPGPGAPLSGSVLAEAAVVFAVVLSIHATVWDRYSWCAVALAVQAFYVQYKWDRLLQQGSAVFQFRMSANSGLLPASMVMPLLGLVMKERCQTAGNPFFERFGIVVAATGMAVALFSSVLALGITRPVPTNTCVILGLAGGVIIYIMKHSLSVGEVIEVLEVLLIFVYLNMILLYLLPRCFTPGEALLVLGGISFVLNQLIKRSLTLVESQGDPVDFFLLVVVVGMVLMGIFFSTLFVFMDSGTWASSIFFHLMTCVLSLGVVLPWLHRLIRRNPLLWLLQFLFQTDTRIYLLAYWSLLATLACLVVLYQNAKRSSSESKKHQAPTIARKYFHLIVVATYIPGIIFDRPLLYVAATVCLAVFIFLEYVRYFRIKPLGHTLRSFLSLFLDERDSGPLILTHIYLLLGMSLPIWLIPRPCTQKGSLGGARALVPSAGVLAVGVGDTVASIFGSTMGEIRWPGTKKTFEGTMTSIFAQIISVALILIFDSGVDLNYSYAWILGSISTVSLLEAYTTQIDNLLLPLYLLILLMA", "note": "[Y441S]", "effect of a mutation on the interaction": "disrupting interaction strength"}
{"variants_of": "B1", "conditions": "with kcna1_human KCNA1, Q09470"}
{"variant": "MTRECPSPAPGPGAPLSGSVLAEAAVVFAVVLSIHATVWDRYSWCAVALAVQAFYVQYKWDRLLQQGSAVFQFRMSANSGLLPASMVMPLLGLVMKERCQTAGNPFFERFGIVVAATGMAVALFSSVLALGITRPVPTNTCVILGLAGGVIIYIMKHSLSVGEVIEVLEVLLIFVYLNMILLYLLPRCFTPGEALLVLGGISFVLNQLIKRSLTLVESQGDPVDFFLLVVVVGMVLMGIFFSTLFVFMDSGTWASSIFFHLMTCVLSLGVVLPWLHRLIRRNPLLWLLQFLFQTDTRIYLLAYWSLLATLACLVVLYQNAKRSSSESKKHQAPTIARKYFHLIVVATYIPGIIFDRPLLYVAATVCLAVFIFLEYVRYFRIKPLGHTLRSFLSLFLDERDSGPLILTHIYLLLGMSLPIWLIPRPCTQKGSLGGARALVPSAGVLAVGVGDTVASIFGSTMGEIRWPGTKKTFEGTMTSIFAQIISVALILIFDSGVDLNYSYAWILGSISTVSLLEAYTTQIDNLLLPLYLLILLMA", "note": "[Y441S]", "effect of a mutation on the interaction": "disrupting interaction strength"}
{"variants_of": "B1", "conditions": "with ylat2_human SLC7A6, Q92536"}
{"variant": "MTRECPSPAPGPGAPLSGSVLAEAAVVFAVVLSIHATVWDRYSWCAVALAVQAFYVQYKWDRLLQQGSAVFQFRMSANSGLLPASMVMPLLGLVMKERCQTAGNPFFERFGIVVAATGMAVALFSSVLALGITRPVPTNTCVILGLAGGVIIYIMKHSLSVGEVIEVLEVLLIFVYLNMILLYLLPRCFTPGEALLVLGGISFVLNQLIKRSLTLVESQGDPVDFFLLVVVVGMVLMGIFFSTLFVFMDSGTWASSIFFHLMTCVLSLGVVLPWLHRLIRRNPLLWLLQFLFQTDTRIYLLAYWSLLATLACLVVLYQNAKRSSSESKKHQAPTIARKYFHLIVVATYIPGIIFDRPLLYVAATVCLAVFIFLEYVRYFRIKPLGHTLRSFLSLFLDERDSGPLILTHIYLLLGMSLPIWLIPRPCTQKGSLGGARALVPSAGVLAVGVGDTVASIFGSTMGEIRWPGTKKTFEGTMTSIFAQIISVALILIFDSGVDLNYSYAWILGSISTVSLLEAYTTQIDNLLLPLYLLILLMA", "note": "[Y441S]", "effect of a mutation on the interaction": "with no effect"}
